3 molecules from US20060233822A1 (YANG SHENG TANG, published 2006) can be followed below.

For assay [1], the target named is C149-mut-8C11. Briefly: dot blot of E. coli lysate supernatant.
The target in assay [2] is 7-peptide ITNDFKQ. Briefly: phage display panning on coated MAb; 1 clone.
The target of assay [3] is 7-peptide PVQMPWL. Briefly: phage display panning on coated MAb; 1 clone.
Assay [4] has as its target 7-peptide SLPTLTL. Briefly: phage display panning on coated MAb; 1 clone.
Assay [5] deals with 7-peptide HPTLLRI. Briefly: phage display panning on coated MAb; 5 clones.
In assay [6] the target is 7-peptide YQDSAKT. Briefly: phage display panning on coated MAb; 2 clones.
The target of assay [7] is 7-peptide SSYEWFI. Briefly: phage display panning on coated MAb; 1 clone.
The target of assay [8] is 7-peptide SSMFFYR. Briefly: phage display panning on coated MAb; 1 clone.
Assay [9] has as its target 7-peptide NHWASPR. Briefly: phage display panning on coated MAb; 1 clone.
The target of assay [10] is 7-peptide SLVTGIL. Briefly: phage display panning on coated MAb; 1 clone.
In assay [11] the target is 7-peptide SAPSSKN. Briefly: phage display panning on coated MAb; 1 clone.
Assay [12] addresses 7-peptide INQKPTL. Briefly: phage display panning on coated MAb; 1 clone.
Assay [13] deals with 7-peptide VSWNSLV. Briefly: phage display panning on coated MAb; 1 clone.
Assay [14] addresses T1, C149-mut-8H3.
T1 chain: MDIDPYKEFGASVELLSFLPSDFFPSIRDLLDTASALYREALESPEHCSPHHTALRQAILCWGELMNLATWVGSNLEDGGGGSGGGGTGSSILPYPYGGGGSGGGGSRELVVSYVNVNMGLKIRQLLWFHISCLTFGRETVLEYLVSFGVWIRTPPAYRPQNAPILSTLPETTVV
Briefly: dot blot of E. coli lysate supernatant.

Assay [15] deals with polypeptide 209 (hepatitis E virus). Briefly: ELISA with 8C11.
Assay [16] concerns the target 7-peptide ALWGPTS. Briefly: phage display panning on coated MAb; 2 clones.
Assay [17] deals with 7-peptide SAHVLST. Briefly: phage display panning on coated MAb; 1 clone.
The target of assay [18] is 7-peptide STLFMNF. Briefly: phage display panning on coated MAb; 1 clone.
Assay [19] deals with 7-peptide SPPNVRT. Briefly: phage display panning on coated MAb; 1 clone.
Assay [20] addresses 7-peptide SPKMPIL. Briefly: phage display panning on coated MAb; 1 clone.

B1: monoclonal antibody 8C11 (antibody, V domains shown)
VH: QVTLKESGPGILQPSQTLSLTCSFSGFSLSTSGMGVGWIRQPSGKGLEWLAHIWWDDVKRYSPALKSRLTISKDTSSSQLFLKIASVDTADTATYYCARIKSVITTGDYALDYWGQGTSVAVSS
VL: DIQMTQSPASLSVSVGETVTITCRASEIIYSNLAWYQQKQGKSPQLLVYSATNLAEGVPSRFSGSGSGTQYSLKINSLQSEDFGSYYCQHFWGNPWTFGGGTKLEIKR
notes: also called MAb 8C11; HRP-8C11
Take B1: the binding result in [1], in assay [2], in [3], in assay [4] and in [5] was “binds” throughout.

B2: monoclonal antibody 13D8 (antibody, V domains shown)
VH: DVQLQESGPGLVKPSQSLSLSCSVTGYSITSGYYWNWIRQFPGNKLEWMGYIGYDGSNKYNPSLKNRISITRDTSKNQFFLKLTSVTTGDTATYYCVRDVKYYFDYWGQGTTVTVSS
VL: DIQMTQSPASLSVSVGETVTITCRASENIYSNLAWYQQKQGKSPQLLVYAATNLADGVPSRFSGSGSGTQYSLKISSLQSEDFGSYYCQHFWGSPWTFGGGTKLEIKR
notes: also called MAb 13D8; HRP-13D8
Regarding B2, the binding result in [6], in assay [7], in [8], in assay [9], in assay [10] and in assay [11] was “binds” throughout. Besides, the binding result in [12] and in assay [13] was “binds” each time.

B3: monoclonal antibody 8H3 (antibody, V domains shown)
VH: QVQLKESGPGLVAPSQSLSITCTVSGFSLIGYGVNWVRQPPEKGLEWLGMIWGDGSTDYNSALKSRLSITKDNSKSQVFLKMNSLQTDDTARYYCAMGVRPDPFDYWGQGTLVTVSA
VL: NIMMTQSPSSLAVSAGEKVTMSCKSSQSVLYSSNQKNYLAWYQQKPGQSPKLLIYWASARESGVPDRFTGSGSGTDFTLTINSVQTEDLAVYYCHQYLSSYTFGGGTKLEIKR
notes: also called MAb 8H3; HRP-8H3
Turning to B3, the binding result in assay [14], in assay [16], in assay [17], in [18], in assay [19] and in [20] was “binds” in each case. The “8C11 increases 8H3's reactivity” value in [15] was 3 fold.
